Assay results: patent KR20140095558A (dated 2014)

molecular target: T1, BSA (bovine serum albumin) (bovine (송아지 혈청 알부민), UniProt P02769 25-607); test: phage ELISA, 1% BSA coated, anti-M13 peroxidase, OD 492 nm
T1 construct: Negative control antigen of the phage ELISA; also called 송아지 혈청 알부민
T1 sequence (P02769 25-607 limits assumed): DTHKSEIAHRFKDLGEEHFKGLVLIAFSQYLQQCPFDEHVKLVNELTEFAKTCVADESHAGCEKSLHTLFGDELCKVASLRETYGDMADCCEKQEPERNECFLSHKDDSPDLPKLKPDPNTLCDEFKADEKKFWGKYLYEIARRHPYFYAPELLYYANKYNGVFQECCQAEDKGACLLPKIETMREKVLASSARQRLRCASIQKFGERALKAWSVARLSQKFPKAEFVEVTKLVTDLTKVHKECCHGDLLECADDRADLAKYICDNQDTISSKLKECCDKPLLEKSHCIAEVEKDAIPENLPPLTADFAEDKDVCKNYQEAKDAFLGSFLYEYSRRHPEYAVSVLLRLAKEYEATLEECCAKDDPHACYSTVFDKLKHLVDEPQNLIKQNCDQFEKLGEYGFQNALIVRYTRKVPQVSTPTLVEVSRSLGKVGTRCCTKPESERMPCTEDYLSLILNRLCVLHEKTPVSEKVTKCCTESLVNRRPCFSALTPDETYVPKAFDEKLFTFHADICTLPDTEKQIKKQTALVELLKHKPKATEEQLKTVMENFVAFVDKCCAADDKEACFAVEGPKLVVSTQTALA

| Binder | binding result |
| --- | --- |
| SC05-187 (scFv) scFv: EVQLVQSGAEVKKPGESLKISCKGSGYSFTKYWIGWVRQMPGKGLEWMGIIYPGDSDTRYSPSFQGQVTISADKSISTAYLQWSSLKASDTAMYYCARGSGIATGNSFDSWGQGTLVTVSSGTGGSGGTGSGTGGSTQTVVTQEPSLTVSPGGTVTLTCASSTGAVTSGYYPNWFQQKPGQAPRALIYSTSKKHSWTPARFSGSLLGGRAALTLSGAQPEDEADYYCLLSYGGARVFGGGTKLTVL | no binding |
| SC06-050 (scFv, also called SC05-050) scFv: EVQLVESGPEVKKPGASVKVSCEASGYNLDNYGITWVRQAPGQGLEWLGWISAYNAKTEYGQRLQGRVTMTTDTATSTAYLELRSLRSDDTAVYYCARVLGYRGGWYDEGDAFDVWGQGTMVTVSSGTGGSGGTGSGTGGSTDIQLTQSPSFLSASVGDRVTITCRASQGIRSHLAWYQQKAGKAPKLLIYAASTLQSGVPSRFSGSGSGTEFTLTISSLQPDDFAAYYCQQLNTYPITFGQGTRLEIK | no binding |
| SC06-016 (scFv) scFv: QVQLVQSGPEVKKPGASVTVSCKASGYSFSSYGISWVRQAPGQGLEWMGRIIPVGGNTLYSQMFQGRVTMTSDTSTSTVYLELSSLRSEDTAVYFCARDGGRWQFDYWGQGTLVTVSSGTGGSGGTGSGTGGSTDIQLTQSPSSVSASVGDRVTITCRASQGISNWLAWYQQKPGKAPELLIYAASSLQSGVPPRFSGSASGTDFTLTISSLQPEDFATYYCQQSKNFPYTFGQGTKVEIK | no binding |
| SC06-043 (scFv) scFv: EVQLVESGAEVKKPGESLKISCKGSGYSFTSYWIGWVRQMPGKGLEWMGIIYPGDSDTRYSPSFQGQVTISADKSISTAYLQWSSLKASDTAMYYCARRYCSGGTCSDGFDIWGQGTMVTVSSGTGGSGGTGSGTGGSTQSALTQPPSASGSPGQSVTISCTGTSSDVGGYNYVSWYQQHPGKAPKLMIYEVSKRPSGVPDRFSGSKSGNTASLTVSGLQAEDEADYYCSSYAGSNNLVFGGGTKLTVL | no binding |
| SC06-049 (scFv) scFv: QVQLVQSGAEVKKPGESLKISCKGSGYSFTSYWIGWVRQMPGKGLEWMGIIYPGDSDTRYSPSFQGQVTISADKSIGTAYLQWSSLKASDTAMYYCARLFRVRGGHFDSWGQGTLVTVSSGTGGSGGTGSGTGGSTQSALTQPASVSGSPGQSITISCTGTNSDVGGYNYVSWYQQHPGKAPKLLIYDVTNRPSGVSNRFSASKSGNTASLTISGLQAEDEADYYCSSFTSSSTRVFGGGTKLTVL | no binding |
